assay: yeast display, Sf9 membrane polyspecificity reagent, FACS + sequencing; frameworks hold sequencing errors
Outline: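 Nanobodies came from a synthetic yeast display library in Saccharomyces cerevisiae BJ5465, induced with galactose for 36–48 hours and stained for 1 hour at 4 °C with 10% biotinylated, detergent-solubilized Sf9 membrane reagent. Cells were enriched on streptavidin microbeads and then FACS-sorted, with low and high (top ~1%) gates set on anti-HA fluorescence for expression and streptavidin fluorescence for reagent binding. Each polyreactivity label reflects the gate a clone came from. Genes were amplified by colony PCR, sequenced by MiSeq 2 × 250 and filtered by CDR length.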

Sequence	polyreactivity (PSR sort gate)
QVQLVDSGGGLVQAGGSLRLSCAASGSIFSVYAMGWYRQAPGKERELVAAISSRGGSTYYADSVKGRFTISRDNAKNTVYLQMNSLKPEDTAVYYCAASRQSQRGYWGQGTQVTVSS	high polyreactivity
QVQLVDSGGGLVQAGGSLRLSCAASGSIFWDYAMGWYRQAPGIERELVASIPSGGSTYYADSVKGRFTISRDNAKKTVYLQMNRLKPEDTAVYYCAADGHTRHWGQTGRGAMYYWGQGTQVTVSS	low polyreactivity
QVQLVDSGGGLVQAGGSLRLSCAASGSIFYRNAMGWSRQAPGKERELVAAITRGGSTYYADSVKGRFTISRDNAKNTVYLQMNSLKPEDTAVYYCNAYGGFAYSYDYWGQGTQVTVSS	high polyreactivity
QVQLVDSGGGLVQAGGSLRLSCAASGSILESNVMGWYRQAPGKERELVASISSSGDSTYADSVKGRFTISRDNAKNTVYLQMNILKPEYTAVYYCAADRWYWTYALYYWGQGTQVTVSS	low polyreactivity
QVQLVDSGGGLVQAGGSLRLSCAASGSILFEYMGWYRQAPGKERELVAAITIRDGGTYYADSVKGRFTISRDNAKNTVYLQMNSLKPEDTAVYYCNADFSGGWRYDYWGQGTQVTVSS	low polyreactivity
QVQLVDSGGGLVQAGGSLRLSCAASGSTFDPYTMGWYRQAPGTERELVAGMTGGGSTYYADCVKGRFTISRDNAKNTVYLQMNSLKPEDTAVYYCARDYSYYKGPDGHYWGQGTQVTVSS	low polyreactivity
QVQLVDSGGGLVQAGGSLRLSCAASGSTFDVYAMGWYRQAPGKERELVAVINTSGTRTYYADSVKGRFTISRDNAKNTVYLQMNSLKPEDTEVYYCNAGGHLEMNYWGQGTQVTVSS	low polyreactivity
QVQLVDSGGGLVQAGGSLRLSCAASGSTFISYAMRWYRPAPGKERELVAAISSSTGRTYYADSVKGRFTISRDNAKNTVYLQMNSLKPEDTAVYYCNAVHRYERVYWGQGTQVTVSS	high polyreactivity
QVQLVDSGGGLVQAGGSLRLSCAASGSTFQGNTMGWYRQAPGKERELVAAISRSGGITYYADSVKGRFTISRVNAKNTVYLQMNSLKPEDTAVYYCAAKQVFTAGRSVDYWGQGTQVTVSS	high polyreactivity
QVQLVDSGGGLVQAGGSLRLSCAASGSTFVYNTMGWYSHAPGKERELVAAISYRGSTYYADSVKGRFTISRENAKNTVYLQMNSLKPEDTAVYYCNGPRRQYEYDFWGLGTQVTVSS	high polyreactivity
QVQLVDSGGGLVQAGGSLRLSCAASGSTLRRYAMGWYRQAPGKERELVAAISGSGDSTYYADSVKGRFTISRDNAKNTVYLQMNSLKPEDTAVYYCNAVYAFNGYDYWGQGTQVTVSS	low polyreactivity
QVQLVDSGGGLVQAGGSLRLSCAASGYSFYFYAMGWYRQAPGKERELVAAITGGGTTSYADSVKGRFTISRDNAKNTVYLQMNSLKPEDTAVYYCNVLFADKSDYWGQGTLVTVSS	low polyreactivity
QVQLVDSGGGLVQAGGSLRLSCAASGYTFDRYAMGWYRQAPGKERELVAAISVRGGRTHYADSVKGRFTISRDNAKNTVYLQMNSLKPEDTAVYYCNKDSKGGYSVPHDYWGQGTQVTVSS	low polyreactivity
QVQLVDSGGGLVQAGGSLRLSCAASGYTLSVNAMGWYRQAPGKERELVATIDFGGGSTYYADSVKGRFTISRDNAKNTVYLQMNSLKPEDTAVYYCNAHDFGFYRFSLPGYDYWGQGTQVTVSS	low polyreactivity
QVQLVDSGGGLVQAGGSLRLSCAASVFTFYCNAMGWYRQAPGKERELVAAITSTGNTYYADSVKGRFTISRDNAKNTVYLQMNSLKPEDTAVYYCARRGDILYDYWGQGTQVTVSS	low polyreactivity
QVQLVDSGGGLVQAGGSLRLSCAPYVLIFWAYAMGWYRQAPGKERELVAAISWSGARTYYADSVMGRFTISRDHAKHTVYLQMNSLKPEDTAVYYCAVGVQSSKRHDYWGQGTQVTVSS	high polyreactivity
QVQLVDSGGGLVQAGGSLRLSCPASGRTFFNNVMGWSRQAPGKEREWVAAISKSGTRTYYADSVKGRFTISRDNAKNTVYLQMNSLKPEDTAVYYCATGPYLRTSRYYYWGQGTQVTVSS	high polyreactivity
QVQLVDSGGGLVQAGGSLRLSCSASGSILGAYAMGWYRQSPGKERELVASISWSGGSTYYADSVKGRFTISRDNAKNTVYLQMNSLKPEDTAGYYCAASGIRYWLPYDYWGQGTQVTVSS	high polyreactivity
QVQLVDSGGGLVQAGGSLRLSSAASGRTFRYYTMGWYRQAPGKERELVAGISRSGANTYYADSVKGRFTISRDNAKNSVYLQMNSLKPEDTAVYYCNAVYGTYDWGQGTQVTVSS	high polyreactivity
QVQLVDSGGGLVQAGGSLRLSWAASGSTLYVNAIGFYRQAPGKERELVSAISWSGGSTNYADSVKGRFTISRDNAKNTVYLQMNSQKPEDTSVYYCAVYYRRWFSRYDYWGQGTQVTVSS	low polyreactivity
QVQLVDSGGGLVQAGGSLRLTCAASGRTFRYNAMGWYRQAPGKERDLVARISRGGSPYADSVKGRFTISRDNAKNTVYLQMNSLKPEDSAVYYCAADPTKHNQSEYYYWGQGTQVNVSS	low polyreactivity

Sequence	polyreactivity (PSR sort gate)
QVQLVDSGGGLVQAGGSLRLTCAASGSTFDTNSVGWYRQAPGKERELVAAITSGGNTYADSVKGRFTISRDNAKNTVYFQMNSLKAEDTAVYYCAAEDVFTCWYDYWGQGTQVNVSS	low polyreactivity
QVQLVDSGGGLVQAGGSLRLTCDASGFIILYYAMRWYRQEPGKERELVADISRGADTKYADSVKGRFTISRDNAKNTVYLQMNSLKPEDTAVYYCATDITTFCFPYPGVELGYWGQGTQVTVSS	low polyreactivity
QVQLVDSGGGLVQAGGSLRLTSAASGRIFVRNAMGWYRPAPGKERELVAASSWSSGGTYYADSVKGRFTISRDNAKNRVYLQMNSLKPEETAVYSCIADTSRAGVYWGQGTQVTVSS	low polyreactivity
QVQLVDSGGGLVQAGGSLSLSCAASGNIFDYNVMGWYRQAPGKERELVAAITASAVRTYYADSVKGRFTISRDNAKNTVYLQMNSLKPEDIAVYYCGKRRIVRQRSYYYWGQGTQVTVSS	low polyreactivity
QVQLVDSGGGLVQAGGSLSLSCAASGRIFPYNAMGWYRQAPGKERELVAGISRTGGSTYYADSVKGRFTISRDNAKNTVYLQKNCLKTEDTAAYYCGARPGAHPDRLDYWGQGTQVTVSS	low polyreactivity
QVQLVDSGGGLVQAGGTLRLSCAASGFTFIYYAMGWYRQAPGKERELVAAISASGGSTYYADSVKGRFTISRDNAKNTVYLQMNSLKPEDTAVYYCNKYWRKPPAGGYYYWGQGTQVTVSS	high polyreactivity
QVQLVDSGGGLVQAGGTLRLSCAASGRTIRYNAMAWYRQAPGKERELVAAITGSGGSTYYADSVKGRFTISRDNAKNTVYLQMNSLKPEDTAVYYCARDGYLVYYYDWSYPYDSWGQGTQVTVSS	low polyreactivity
QVQLVDSGGGLVQAGGTLRLSCGASGLIFYLYAMGWFRQAPGKERELVAAITYSGGSTRYADSVKGRFTISRDNAKNTVYFQKNSLKPEDTAVYYCNAAGTAPTELDYWGQGSQVTVSS	low polyreactivity
QVQLVDSGGGLVQAGGTLSLSCAASGRTFWWYARGWSRQAPGTERELVDAITNFGSTNYADSVKGRFSISRDNAKNTVYLQKNSLKPEDTAVYYCAALTRCWYGGFYQYYYLGQGTQVTVSS	high polyreactivity
QVQLVDSGGGLVQAGPSLRLSCAASGSTFYLYAMGWYRQAPGKERELVAAITFRGSRTYYADSVKGRFTISRDNAKNTVYFQMNSLKPEDTAVYYCAADSYIERAYGSLGVWRYDYWGQGTQVTVSS	low polyreactivity
QVQLVDSGGGLVQAGVSLRLSCAASGSIFLLNAMGWYRQATGKERELVAAISWGGGSTYYADSVKGRFTISRDNAKNTVYLQMNSLKPEDTAVDYCNASVTLGQEVDYWGLGTQVTVSS	low polyreactivity
QVQLVDSGGGLVQEGGSLRLSCAASGSIFLIYAMGWYRQAPGKERELVAAITGGGTTNYADSVKGRFTISRDNAKNTVYLQMNSLKPEDTAVYYCNTLYLVYLYWTSPTPSDLFDYWGQGTQVTVSS	low polyreactivity
QVQLVDSGGGLVQSGGILRLSCAASGRTFRYYAMGSYRQAPGKERELVAAISSGGSTNYADSVKGRFTISRDNAKNTVYLQMNSLKPEDTAVYYCAALWSGNKFKYWGQGSQVTVSS	low polyreactivity
QVQLVDSGGGLVQSGGSLSLSCAASGFNFWPYAMGWYREAPGKEREFVAAITRTGGSTSYADSVKGRFTISRDNAKNTVYLQINSLKPEDTAVYYCAATSYYRTNYGLVFQYRRNYGGQGTQVTVSS	high polyreactivity
QVQLVDSGGRLLQAGGSLRLSSAASGLIFKRYAMGWYIQAPGKERELDAAITSGSSTNYADSVKGRFTISRDNAKNTVYLQMNSLKPEDTAVYYCARDVYFSPYYRRSFQWRFDYWGQGTQVTVSS	high polyreactivity
QVQLVDSGGRLVQAGGRLRLTCAASGFILSYNMGWYRQAPGKERELVATISYNDVSTYYADSVKGRFTISRDNAKNTVYLQMNSLKPEDTAVDYCNAQFPIITRRGYDYWGQGTQVNVSS	high polyreactivity
QVQLVDSGGRLVQAGGSLRLSCSASGIIIPSYAMGWYRQAPGKERELVAAISGRGGRTYYSDSVKGRFTISRDNAKNSVYLQMNSLKPEDTAVYYCAASGTSSSRKSYYWGQGTQVTVSS	high polyreactivity
QVQLVDSGGVLVQAGGSLRLSCAASGGTFRTYAMGWYRQAPGKERELVAAITWRGGSTYYADSVKGRFTISRDNAKNTVYLQMNSLKPEDTAVYNCAARVAYQWSFYKYDYWGQGTQVTVSS	high polyreactivity
QVQLVDSGGVLVQAVGSLRLSCAASGLIFYSNAMGWYRQAPGKERELVATISWSGGSTYYADSVKGRFTSSRDNAKNTVYLQMNSLTPEDTAVYYCAAVTHPAWAVEYDYWGQGTQVTVSS	high polyreactivity
QVQLVDSGRGLVQAGGSLRLSCAASGSIFGKYAMGWYREAPGKERELVAAISKGGGRTSYADSVKGRFTISRDNAKNTVYLQMNSLKPEDTAVYYCNVAQNYWAGLYDYWGQGTQVTVSS	high polyreactivity

Source: the nanobody polyreactivity screen of Harvey et al. (2022)
